Measurements: patent US20240400654A1
Changes are numbered by the printed parent chain. Numbers in names are those of the source. Where “and” joins values, the source holds several entries; their conditions need not be identical. Identical values can stand only once.

B1: KB001 mouse Fab VH I31V (Fab, V domains shown)
VH: EVQLKQSGPGLVAPSQSLSITCTVSGFSLSVYSVHWVRQPPGKGLEWLGMIWGGGSSDYNSALKSRLSISKDNSKSQVFLKMNSLQTDDTAMYYCARNGNFYAMDYWGQGTSVTVSS
VL: QIVLTQSPAIMSASLGERVTMTCTASSSVSSSFLHWYQQKPGSSPQLWIYSTSNLASGVPARFSGSGSGTSYSLTISSMEAEDAATYYCHQYHHSPYIYTFGGGTKLEIK
B2: KB001 mouse Fab VH Y106W (Fab, V domains shown)
VH: B1 VH with V31I, Y106W
VL: B1 VL
B3: KB001 mouse Fab VH Y106K (Fab, V domains shown)
VH: B1 VH with V31I, Y106K
VL: B1 VL
B4: KB001 mouse Fab VH Y106S (Fab, V domains shown)
VH: B1 VH with V31I, Y106S
VL: B1 VL
B5: KB001 mouse Fab VH G26D (Fab, V domains shown)
VH: B1 VH with G26D, V31I
VL: B1 VL
B6: KB001 mouse Fab VH S57V (Fab, V domains shown)
VH: B1 VH with V31I, S57V
VL: B1 VL
B7: KB001 mouse Fab VH S28R (Fab, V domains shown)
VH: B1 VH with S28R, V31I
VL: B1 VL
B8: KB001 mouse Fab VH G26N (Fab, V domains shown)
VH: B1 VH with G26N, V31I
VL: B1 VL
B9: KB001 mouse Fab VH S65T (Fab, V domains shown)
VH: B1 VH with V31I, S65T
VL: B1 VL
B10: KB001 mouse Fab VH G99Y (Fab, V domains shown)
VH: B1 VH with V31I, G99Y
VL: B1 VL
B11: KB001 mouse Fab VH S28H (Fab, V domains shown)
VH: B1 VH with S28H, V31I
VL: B1 VL
B12: KB001 mouse Fab VH Y106N (Fab, V domains shown)
VH: B1 VH with V31I, Y106N
VL: B1 VL
B13: KB001 mouse Fab VH S28L (Fab, V domains shown)
VH: B1 VH with S28L, V31I
VL: B1 VL
B14: KB001 mouse Fab VH K64R (Fab, V domains shown)
VH: B1 VH with V31I, K64R
VL: B1 VL
B15: KB001 mouse Fab VH S57A (Fab, V domains shown)
VH: B1 VH with V31I, S57A
VL: B1 VL
B16: KB001 mouse Fab VH S61T (Fab, V domains shown)
VH: B1 VH with V31I, S61T
VL: B1 VL
B17: KB001 mouse Fab VH Y106T (Fab, V domains shown)
VH: B1 VH with V31I, Y106T
VL: B1 VL
B18: KB001 mouse Fab VH N100E (Fab, V domains shown)
VH: B1 VH with V31I, N100E
VL: B1 VL
B19: KB001 mouse Fab VH Y59V (Fab, V domains shown)
VH: B1 VH with V31I, Y59V
VL: B1 VL
B20: KB001 mouse Fab VH Y106A (Fab, V domains shown)
VH: B1 VH with V31I, Y106A
VL: B1 VL
B21: KB001 mouse Fab VH Y106F (Fab, V domains shown)
VH: B1 VH with V31I, Y106F
VL: B1 VL
B22: KB001 mouse Fab VH S28N (Fab, V domains shown)
VH: B1 VH with S28N, V31I
VL: B1 VL
B23: KB001 mouse Fab VH K64A (Fab, V domains shown)
VH: B1 VH with V31I, K64A
VL: B1 VL
B24: KB001 mouse Fab VH I31M (Fab, V domains shown)
VH: B1 VH with V31M
VL: B1 VL
B25: KB001 mouse Fab VH V34I (Fab, V domains shown)
VH: B1 VH with V31I, V34I
VL: B1 VL
B26: KB001 mouse Fab VH S61N (Fab, V domains shown)
VH: B1 VH with V31I, S61N
VL: B1 VL
B27: KB001 mouse Fab VH Y106V (Fab, V domains shown)
VH: B1 VH with V31I, Y106V
VL: B1 VL
B28: KB001 mouse Fab VH S65D (Fab, V domains shown)
VH: B1 VH with V31I, S65D
VL: B1 VL
B29: KB001 mouse Fab VH S57Q (Fab, V domains shown)
VH: B1 VH with V31I, S57Q
VL: B1 VL
B30: KB001 mouse Fab VH Y106M (Fab, V domains shown)
VH: B1 VH with V31I, Y106M
VL: B1 VL
B31: KB001 mouse Fab VH S56A (Fab, V domains shown)
VH: B1 VH with V31I, S56A
VL: B1 VL
B32: KB001 mouse Fab VH S28Y (Fab, V domains shown)
VH: B1 VH with S28Y, V31I
VL: B1 VL
B33: KB001 mouse Fab VH Y106Q (Fab, V domains shown)
VH: B1 VH with V31I, Y106Q
VL: B1 VL
B34: KB001 mouse Fab VH G99S (Fab, V domains shown)
VH: B1 VH with V31I, G99S
VL: B1 VL
B35: KB001 mouse Fab VH S28G (Fab, V domains shown)
VH: B1 VH with S28G, V31I
VL: B1 VL
B36: KB001 mouse Fab VH Y106R (Fab, V domains shown)
VH: B1 VH with V31I, Y106R
VL: B1 VL
B37: KB001 mouse Fab VH Y106L (Fab, V domains shown)
VH: B1 VH with V31I, Y106L
VL: B1 VL
B38: KB001 mouse Fab VH S28A (Fab, V domains shown)
VH: B1 VH with S28A, V31I
VL: B1 VL
B39: KB001 mouse Fab VH S65V (Fab, V domains shown)
VH: B1 VH with V31I, S65V
VL: B1 VL
B40: KB001 mouse Fab VH A103S (Fab, V domains shown)
VH: B1 VH with V31I, A103S
VL: B1 VL
B41: KB001 mouse Fab VH Y106I (Fab, V domains shown)
VH: B1 VH with V31I, Y106I
VL: B1 VL

Biological target: HRgpA-6H (Porphyromonas gingivalis) (UniProt P28784)
Experiment: ELISA, coated HRgpA-6H

UniProt P28784, sequence (P28784 228-860 limits assumed): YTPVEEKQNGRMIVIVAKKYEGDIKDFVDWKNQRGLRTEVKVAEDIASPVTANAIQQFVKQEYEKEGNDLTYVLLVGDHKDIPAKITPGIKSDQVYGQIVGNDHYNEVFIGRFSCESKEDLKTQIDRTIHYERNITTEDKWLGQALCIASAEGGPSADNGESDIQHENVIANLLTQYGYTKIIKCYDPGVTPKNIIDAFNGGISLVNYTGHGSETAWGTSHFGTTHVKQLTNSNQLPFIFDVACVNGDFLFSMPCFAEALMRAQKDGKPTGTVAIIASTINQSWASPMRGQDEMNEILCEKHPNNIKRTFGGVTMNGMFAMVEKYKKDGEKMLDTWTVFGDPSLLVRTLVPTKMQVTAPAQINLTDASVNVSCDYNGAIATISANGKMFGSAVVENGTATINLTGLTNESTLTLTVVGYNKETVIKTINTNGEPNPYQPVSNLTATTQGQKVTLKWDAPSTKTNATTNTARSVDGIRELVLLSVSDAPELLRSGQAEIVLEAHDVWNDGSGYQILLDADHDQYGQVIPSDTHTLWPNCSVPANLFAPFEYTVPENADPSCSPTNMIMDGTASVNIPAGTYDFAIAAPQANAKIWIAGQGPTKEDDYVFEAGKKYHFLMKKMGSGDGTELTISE

| Binder | OD450 nm | Ratio OD(Variant)/OD(WT) |
| --- | --- | --- |
| B1 | 0.537 and 0.521 | 1.06 and 1.03 |
| B2 | 0.791 and 0.809 and 0.82 | 1.03 and 1.05 and 1.07 |
| B3 | 0.807 | 1.05 |
| B4 | 0.852 and 0.849 | 1.11 and 1.1 |
| B5 | 0.47 and 0.481 | 0.925 and 0.947 |
| B6 | 0.911 and 0.869 | 1.04 and 0.988 |
| B7 | 0.458 | 0.848 |
| B8 | 0.445 | 0.876 |
| B9 | 0.883 | 1.07 |
| B10 | 0.835 | 1.05 |
| B11 | 0.511 and 0.526 | 0.946 and 0.974 |
| B12 | 0.792 | 1.03 |
| B13 | 0.435 and 0.468 | 0.806 and 0.867 |
| B14 | 0.87 | 1.05 |
| B15 | 0.922 | 1.05 |
| B16 | 0.543 and 0.447 | 1.1 and 0.906 |
| B17 | 0.827 | 1.07 |
| B18 | 0.886 | 1.05 |
| B19 | 0.83 and 0.79 | 1.05 and 0.999 |
| B20 | 0.821 and 0.835 | 1.07 and 1.09 |
| B21 | 0.815 and 0.856 | 1.06 and 1.11 |

| Binder | OD450 nm | Ratio OD(Variant)/OD(WT) |
| --- | --- | --- |
| B22 | 0.53 | 0.981 |
| B23 | 0.89 | 1.08 |
| B24 | 0.522 | 1.03 |
| B25 | 0.891 and 0.868 and 0.866 | 1.08 and 1.05 (2×) |
| B26 | 0.537 | 1.09 |
| B27 | 0.795 and 0.84 and 0.802 | 1.03 and 1.09 and 1.04 |
| B28 | 0.866 and 0.897 | 1.05 and 1.08 |
| B29 | 0.915 and 0.863 and 0.836 | 1.04 and 0.981 and 0.951 |
| B30 | 0.794 and 0.84 | 1.03 and 1.09 |
| B31 | 0.891 and 0.86 and 0.82 | 1.01 and 0.978 and 0.932 |
| B32 | 0.437 | 0.809 |
| B33 | 0.792 | 1.03 |
| B34 | 0.809 | 1.01 |
| B35 | 0.468 and 0.486 | 0.867 and 0.9 |
| B36 | 0.793 | 1.03 |
| B37 | 0.791 | 1.03 |
| B38 | 0.488 | 0.904 |
| B39 | 0.867 | 1.05 |
| B40 | 0.909 | 1.05 |
| B41 | 0.803 | 1.04 |
